# Results published in publication PMC10786891, “Massively parallel profiling of RNA-targeting CRISPR-Cas13d”.
# T1: EsCas13d, nuclease-dead (Eubacterium siraeum, UniProt B0MS50, R295A;H300A;R849A;H854A)
# T1 sequence: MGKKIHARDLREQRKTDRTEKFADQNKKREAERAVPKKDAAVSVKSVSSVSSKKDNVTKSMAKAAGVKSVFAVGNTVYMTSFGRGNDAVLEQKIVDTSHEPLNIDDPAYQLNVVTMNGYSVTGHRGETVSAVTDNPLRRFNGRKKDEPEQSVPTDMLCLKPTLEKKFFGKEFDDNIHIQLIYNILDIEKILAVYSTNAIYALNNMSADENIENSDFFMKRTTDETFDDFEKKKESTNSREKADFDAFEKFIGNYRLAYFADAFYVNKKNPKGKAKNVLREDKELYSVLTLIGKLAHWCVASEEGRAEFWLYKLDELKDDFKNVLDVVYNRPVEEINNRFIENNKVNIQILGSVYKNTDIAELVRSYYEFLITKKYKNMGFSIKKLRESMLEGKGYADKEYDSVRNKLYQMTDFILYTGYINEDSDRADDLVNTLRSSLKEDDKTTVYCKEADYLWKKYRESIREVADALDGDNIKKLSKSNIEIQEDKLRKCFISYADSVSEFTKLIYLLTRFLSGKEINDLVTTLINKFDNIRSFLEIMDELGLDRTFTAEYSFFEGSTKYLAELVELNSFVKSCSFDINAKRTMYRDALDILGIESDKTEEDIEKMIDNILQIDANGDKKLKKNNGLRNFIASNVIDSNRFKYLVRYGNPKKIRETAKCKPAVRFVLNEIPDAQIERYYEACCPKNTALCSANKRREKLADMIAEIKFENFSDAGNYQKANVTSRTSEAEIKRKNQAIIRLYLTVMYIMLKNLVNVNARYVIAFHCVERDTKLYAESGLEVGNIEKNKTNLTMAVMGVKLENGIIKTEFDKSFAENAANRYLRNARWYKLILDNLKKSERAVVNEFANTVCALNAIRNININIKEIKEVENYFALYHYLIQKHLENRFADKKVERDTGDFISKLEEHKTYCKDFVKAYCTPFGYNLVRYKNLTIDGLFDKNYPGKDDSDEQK
# Molecular target: T1, EsCas13d, nuclease-dead
# Assay: crRNA (strand 1, pre-loaded); Mg2+; 40 mM Tris-HCl pH 7.5, 150 mM NaCl, 6 mM MgCl2, 1 mM DTT, 0.1% Tween-20, 0.2 mg/ml BSA; 25 C; 10 min per concentration, then washed
# Conditions: tags: His6-TwinStrep-SUMO cleaved; N-terminal SNAP kept (SNAP-Surface 488); label: 3' end held by stalled T7 RNA polymerase
row,Binder,Kd
1,"target 1 insG 3' of 16,insG 3' of 3 (mixed) RNA 1: CACCCGUGCAAAAAUGCAGGGGUCUAAAACUGAGCGGAUAACCUCUCUAUGG RNA 2: GGGAAUGGAUCCACAUCUACGAAUUCGUACCAUAGAGGAGGUUAUCCGCUGCACCGAGAUCGGAAGAGCACACGU",16.2 ± 1.1 nM
2,target 1 MT 5'PFS GUC 3'PFS GCG (mixed) RNA 1: CACCCGUGCAAAAAUGCAGGGGUCUAAAACUGAGCGGAUAACCUCUCUAUGG RNA 2: GGGAAUGGAUCCACAUCUACGAAUUCGUCCCAUAGAGAGGUUAUCCGCUCAGCGAGAUCGGAAGAGCACACGU,15.5 ± 7.5 nM
3,target 1 MT 5'PFS GCU 3'PFS UCC (mixed) RNA 1: CACCCGUGCAAAAAUGCAGGGGUCUAAAACUGAGCGGAUAACCUCUCUAUGG RNA 2: GGGAAUGGAUCCACAUCUACGAAUUCGCUCCAUAGAGAGGUUAUCCGCUCAUCCAGAUCGGAAGAGCACACGU,37.5 ± 13 nM
4,target 1 MT 5'PFS CAG 3'PFS UAU (mixed) RNA 1: CACCCGUGCAAAAAUGCAGGGGUCUAAAACUGAGCGGAUAACCUCUCUAUGG RNA 2: GGGAAUGGAUCCACAUCUACGAAUUCCAGCCAUAGAGAGGUUAUCCGCUCAUAUAGAUCGGAAGAGCACACGU,51.5 ± 21 nM
5,target 1 MT 5'PFS GCU 3'PFS CCG (mixed) RNA 1: CACCCGUGCAAAAAUGCAGGGGUCUAAAACUGAGCGGAUAACCUCUCUAUGG RNA 2: GGGAAUGGAUCCACAUCUACGAAUUCGCUCCAUAGAGAGGUUAUCCGCUCACCGAGAUCGGAAGAGCACACGU,40 ± 10.5 nM
6,target 1 MT 5'PFS AAU 3'PFS UUC (mixed) RNA 1: CACCCGUGCAAAAAUGCAGGGGUCUAAAACUGAGCGGAUAACCUCUCUAUGG RNA 2: GGGAAUGGAUCCACAUCUACGAAUUCAAUCCAUAGAGAGGUUAUCCGCUCAUUCAGAUCGGAAGAGCACACGU,20 ± 5.5 nM
7,target 1 MT 5'PFS GCC 3'PFS AGC (mixed) RNA 1: CACCCGUGCAAAAAUGCAGGGGUCUAAAACUGAGCGGAUAACCUCUCUAUGG RNA 2: GGGAAUGGAUCCACAUCUACGAAUUCGCCCCAUAGAGAGGUUAUCCGCUCAAGCAGAUCGGAAGAGCACACGU,13.1 ± 3.8 nM
8,target 1 MT 5'PFS AUA 3'PFS CCG (mixed) RNA 1: CACCCGUGCAAAAAUGCAGGGGUCUAAAACUGAGCGGAUAACCUCUCUAUGG RNA 2: GGGAAUGGAUCCACAUCUACGAAUUCAUACCAUAGAGAGGUUAUCCGCUCACCGAGAUCGGAAGAGCACACGU,62 ± 26.5 nM
9,target 1 MT 5'PFS GCA 3'PFS AUC (mixed) RNA 1: CACCCGUGCAAAAAUGCAGGGGUCUAAAACUGAGCGGAUAACCUCUCUAUGG RNA 2: GGGAAUGGAUCCACAUCUACGAAUUCGCACCAUAGAGAGGUUAUCCGCUCAAUCAGAUCGGAAGAGCACACGU,~28 nM
10,target 1 MT 5'PFS GCA 3'PFS AUU (mixed) RNA 1: CACCCGUGCAAAAAUGCAGGGGUCUAAAACUGAGCGGAUAACCUCUCUAUGG RNA 2: GGGAAUGGAUCCACAUCUACGAAUUCGCACCAUAGAGAGGUUAUCCGCUCAAUUAGAUCGGAAGAGCACACGU,15.5 ± 2.95 nM
11,target 1 MT 5'PFS CCA 3'PFS UUU (mixed) RNA 1: CACCCGUGCAAAAAUGCAGGGGUCUAAAACUGAGCGGAUAACCUCUCUAUGG RNA 2: GGGAAUGGAUCCACAUCUACGAAUUCCCACCAUAGAGAGGUUAUCCGCUCAUUUAGAUCGGAAGAGCACACGU,2.4 ± 0.9 nM
12,"target 1 C2A,U11C (mixed) RNA 1: CACCCGUGCAAAAAUGCAGGGGUCUAAAACUGAGCGGAUAACCUCUCUAUGG RNA 2: GGGAAUGGAUCCACAUCUACGAAUUCGUACCAUAGAGAGGCUAUCCGCUAACCGAGAUCGGAAGAGCACACGU",9.5 ± 0.7 nM
13,target 1 MT 5'PFS GGU 3'PFS ACU (mixed) RNA 1: CACCCGUGCAAAAAUGCAGGGGUCUAAAACUGAGCGGAUAACCUCUCUAUGG RNA 2: GGGAAUGGAUCCACAUCUACGAAUUCGGUCCAUAGAGAGGUUAUCCGCUCAACUAGAUCGGAAGAGCACACGU,~63 nM
14,target 1 MT 5'PFS GCA 3'PFS AUG (mixed) RNA 1: CACCCGUGCAAAAAUGCAGGGGUCUAAAACUGAGCGGAUAACCUCUCUAUGG RNA 2: GGGAAUGGAUCCACAUCUACGAAUUCGCACCAUAGAGAGGUUAUCCGCUCAAUGAGAUCGGAAGAGCACACGU,24.5 ± 6 nM
15,target 1 MT 5'PFS GCA 3'PFS AUA (mixed) RNA 1: CACCCGUGCAAAAAUGCAGGGGUCUAAAACUGAGCGGAUAACCUCUCUAUGG RNA 2: GGGAAUGGAUCCACAUCUACGAAUUCGCACCAUAGAGAGGUUAUCCGCUCAAUAAGAUCGGAAGAGCACACGU,25.5 ± 8.5 nM
16,target 1 MT 5'PFS GCU 3'PFS UCA (mixed) RNA 1: CACCCGUGCAAAAAUGCAGGGGUCUAAAACUGAGCGGAUAACCUCUCUAUGG RNA 2: GGGAAUGGAUCCACAUCUACGAAUUCGCUCCAUAGAGAGGUUAUCCGCUCAUCAAGAUCGGAAGAGCACACGU,27.5 ± 6.5 nM
17,target 1 MT 5'PFS GUU 3'PFS CAU (mixed) RNA 1: CACCCGUGCAAAAAUGCAGGGGUCUAAAACUGAGCGGAUAACCUCUCUAUGG RNA 2: GGGAAUGGAUCCACAUCUACGAAUUCGUUCCAUAGAGAGGUUAUCCGCUCACAUAGAUCGGAAGAGCACACGU,22.5 ± 7 nM
18,target 1 MT 5'PFS GCU 3'PFS CCU (mixed) RNA 1: CACCCGUGCAAAAAUGCAGGGGUCUAAAACUGAGCGGAUAACCUCUCUAUGG RNA 2: GGGAAUGGAUCCACAUCUACGAAUUCGCUCCAUAGAGAGGUUAUCCGCUCACCUAGAUCGGAAGAGCACACGU,~24.5 nM
19,target 1 MT 5'PFS CCU 3'PFS CUA (mixed) RNA 1: CACCCGUGCAAAAAUGCAGGGGUCUAAAACUGAGCGGAUAACCUCUCUAUGG RNA 2: GGGAAUGGAUCCACAUCUACGAAUUCCCUCCAUAGAGAGGUUAUCCGCUCACUAAGAUCGGAAGAGCACACGU,12.5 ± 6 nM
20,target 1 MT 5'PFS AAU 3'PFS UUG (mixed) RNA 1: CACCCGUGCAAAAAUGCAGGGGUCUAAAACUGAGCGGAUAACCUCUCUAUGG RNA 2: GGGAAUGGAUCCACAUCUACGAAUUCAAUCCAUAGAGAGGUUAUCCGCUCAUUGAGAUCGGAAGAGCACACGU,72 ± 26 nM
21,target 1 MT 5'PFS GCC 3'PFS AGU (mixed) RNA 1: CACCCGUGCAAAAAUGCAGGGGUCUAAAACUGAGCGGAUAACCUCUCUAUGG RNA 2: GGGAAUGGAUCCACAUCUACGAAUUCGCCCCAUAGAGAGGUUAUCCGCUCAAGUAGAUCGGAAGAGCACACGU,27 ± 7 nM
22,target 1 MT 5'PFS GCU 3'PFS UCU (mixed) RNA 1: CACCCGUGCAAAAAUGCAGGGGUCUAAAACUGAGCGGAUAACCUCUCUAUGG RNA 2: GGGAAUGGAUCCACAUCUACGAAUUCGCUCCAUAGAGAGGUUAUCCGCUCAUCUAGAUCGGAAGAGCACACGU,30 ± 7 nM
23,target 1 MT 5'PFS GCU 3'PFS UCG (mixed) RNA 1: CACCCGUGCAAAAAUGCAGGGGUCUAAAACUGAGCGGAUAACCUCUCUAUGG RNA 2: GGGAAUGGAUCCACAUCUACGAAUUCGCUCCAUAGAGAGGUUAUCCGCUCAUCGAGAUCGGAAGAGCACACGU,39 ± 8 nM
24,target 1 MT 5'PFS UAG 3'PFS ACG (mixed) RNA 1: CACCCGUGCAAAAAUGCAGGGGUCUAAAACUGAGCGGAUAACCUCUCUAUGG RNA 2: GGGAAUGGAUCCACAUCUACGAAUUCUAGCCAUAGAGAGGUUAUCCGCUCAACGAGAUCGGAAGAGCACACGU,19.1 ± 2.85 nM
25,"target 1 insG 3' of 18,insC 3' of 11 (mixed) RNA 1: CACCCGUGCAAAAAUGCAGGGGUCUAAAACUGAGCGGAUAACCUCUCUAUGG RNA 2: GGGAAUGGAUCCACAUCUACGAAUUCGUACCAUAGGAGAGGUCUAUCCGCUCACCGAGAUCGGAAGAGCACACGU",99 ± 19 nM
26,target 1 MT 5'PFS GCC 3'PFS AGA (mixed) RNA 1: CACCCGUGCAAAAAUGCAGGGGUCUAAAACUGAGCGGAUAACCUCUCUAUGG RNA 2: GGGAAUGGAUCCACAUCUACGAAUUCGCCCCAUAGAGAGGUUAUCCGCUCAAGAAGAUCGGAAGAGCACACGU,24.5 ± 8 nM
27,target 1 MT 5'PFS GCC 3'PFS AGG (mixed) RNA 1: CACCCGUGCAAAAAUGCAGGGGUCUAAAACUGAGCGGAUAACCUCUCUAUGG RNA 2: GGGAAUGGAUCCACAUCUACGAAUUCGCCCCAUAGAGAGGUUAUCCGCUCAAGGAGAUCGGAAGAGCACACGU,37 ± 9.5 nM
28,target 1 MT 5'PFS UAG 3'PFS ACC (mixed) RNA 1: CACCCGUGCAAAAAUGCAGGGGUCUAAAACUGAGCGGAUAACCUCUCUAUGG RNA 2: GGGAAUGGAUCCACAUCUACGAAUUCUAGCCAUAGAGAGGUUAUCCGCUCAACCAGAUCGGAAGAGCACACGU,28.5 ± 6.5 nM
